Experimental data as given in the supplement of paper PMC10201428.
± gives the standard deviation of the averaged measurements.

B1: library; a variant is named by its letters at N, in order (parent)
chain: AATGTTGTTGATGCAACCATAAAGTGATATTTAATAATTATTTATAATCAGCAACTTAACCACAAAACAACCATATATTGATATNTCACAAAACAACCATAANTTGATATTTTTGTGAATCGAGTATTTCAGCAAAACTACTGCAGTAAGAA

Experiments:
[1] = variants of: B1; test: relative integration efficiency (T-LR orientation) vs wild-type transposon end (log2 (normalized fold change)); transposon end mutated: left end; higher = more efficient transposition; settings: with VchCAST RNA-guided transposition machinery (E. coli BL21(DE3) host, lacZ target)
Summary of the method: (§1)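 Co-transformation of E. coli BL21(DE3) combined a pUC57 mini-transposon donor, holding barcoded pools of 1549 left-end or 1849 right-end variants, with a T7-driven plasmid encoding a CRISPR array, tniQ-cas8-cas7-cas6 and tnsA-tnsB-tnsC. After plating with 0.1 mM IPTG at 37°C for 18 h, input plasmids and genomic integration junctions were PCR-amplified and Illumina-sequenced across two biological output replicates, with four reference barcodes. Relative integration efficiency is the normalised, log-transformed output/input barcode fold change.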

[2] = variants of: B1; test: relative integration efficiency (T-RL orientation) vs wild-type transposon end (log2 (normalized fold change)); transposon end mutated: left end; higher = more efficient transposition; settings: with VchCAST RNA-guided transposition machinery (E. coli BL21(DE3) host, lacZ target)
Summary of the method: as §1

Variant	relative integration efficiency (log2) [1]	relative integration efficiency (log2) [2]
AATGTTGTTGATGCAACCATAAAGTGATATTTAAATTATATTTATAATCAGCAACTTAACCACAAAACAACCATATATTGATATCTCACAAAACAACCATAAGTTGATATTTTTGTGAATCGAGTATTTCAGCAAAACTACTGCAGTAAGAA [CG T35A A36T A37T T38A]	0.322 ± 0.34	0.354 ± 0.019
AATGTTGTTGATGCAACCATAAAGTGATATTTAATAATTATTTATAATGATGAATTTTTATGCAAAACAACCATATATTGATATCTCACAAAACAACCATAAGTTGATATTTTTGTGAATCGAGTATTTCAGCAAAACTACTGCAGTAAGAA [CG C49G G51T C52G C55T A58T A59T C60A C61T A62G]	-4.34 ± 2.5	-4.9 ± 0.68
AATGTTGTTGATGCAACCATAAAATGATAATTAATAATTATTTATAATCAGCAACTTAACCACAAAACAACCATAAAATGATAATTAACAAAACAACCATAAAGTGATATTTATGTGAATCGAGTATTTCAGCAAAACTACTGCAGTAAGAA [TA G24A T30A T76A T78A T84A C87A T104G T113A]	0.368 ± 0.38	-0.186 ± 0.3
AATGTTGTACTAGCAACCATAAAGTGATATTTAATAATTATTTATAATCAGCAACTTAACCACAAAACAACCATATATTGATATCTCACAAAACAACCATAAGTTGATATTTTTGTGAATCGAGTATTTCAGCAAAACTACTGCAGTAAGAA [CG T9A G10C A11T T12A]	-4.24 ± 1.9	-1.59 ± 0.56
AATGTTGTTGATGCACCCATAAATTGATATTGCATAATTATTTATAATCAGCAACTTAACCACAAAACAACCATATATTGATATCTCACAAAACACCCATAAATTGATAATTATGTGAATCGAGTATTTCAGCAAAACTACTGCAGTAAGAA [CA A16C G24T T32G A33C A96C T110A T113A]	-1.02 ± 1.2	-0.362 ± 0.31
AATGTTGTTGATGCAACCATTTTCTGATATTTAATAATTATTTATAATCAGCAACTTAACCACAAAACAACCATTATATGATATCTCACAAAACAACCATTTCATGATATTTTTGTGAATCGAGTATTTCAGCAAAACTACTGCAGTAAGAA [CC A21T A22T A23T G24C A75T T76A A77T T78A A101T A102T T104A]	-2.73 ± 1.6	-2.03 ± 0.58
AATGTTGTTGATGCAACCATAAAGTGATATTTAATAATTATTTATAATCAGCAACTTAACCACAAAACAACCATATATTGATATCTGTCAAAACAACCATAAGTTGATATTTTTGTGAATCGAGTATTTCAGCAAAACTACTGCAGTAAGAA [CG C87G A88T]	0.294 ± 0.33	0.11 ± 0.21
AATGTTGTTGATGCAACCATAAAGTGATATTTATAAATTATTTATAATCAGCAACTTAACCACAAAACAACCATATATTGATATCTCACAAAACAACCATAAGTTGATATTTTTGTGAATCGAGTATTTCAGCAAAACTACTGCAGTAAGAA [CG A34T T35A]	0.192 ± 0.25	0.209 ± 0.033
AATGTTGTTGATGCAACCATAAAGTGATATTTAATAATTATTTATAATGTGCAACTTAACCACAAAACAACCATATATTGATATCTCACAAAACAACCATAAGTTGATATTTTTGTGAATCGAGTATTTCAGCAAAACTACTGCAGTAAGAA [CG C49G A50T]	-0.94 ± 0.92	-0.509 ± 0.62
AATGTTGTTGATGCAACCATAAAGTGATATTTAATAATTATTTATAATCAGCAACTTAACCACAAAACAACCATATATTGATATCTCACAAAACAACCATAAGTTGATATTTTTGTGAAGATCTGATTTCAGCAAAACTACTGCAGTAAGAA [CG T120G C121A G122T A123C G124T T125G]	0.433 ± 0.18	0.166 ± 0.011
